Columns and labels:
[1] = biological target: recombinant canine β NGF (canine); assay: cell-based or functional assay
[2] = biological target: T1, recombinant canine β NGF (canine, UniProt Q29074 110-229 (pig entry)); assay: cell-based or functional assay
T1 chain: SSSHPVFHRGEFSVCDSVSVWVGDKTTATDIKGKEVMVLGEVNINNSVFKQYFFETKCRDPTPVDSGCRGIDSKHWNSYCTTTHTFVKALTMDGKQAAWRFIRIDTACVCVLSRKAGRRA

[3] = biological target: T1, recombinant canine β NGF; assay: SPR (Biacore T100), antibody captured on goat anti-canine IgG, canine NGF injected
Description: Purified mouse/canine chimeric antibodies and caninized antibodies were analyzed for affinity to canine NGF using a Biacore T100 instrument. Goat anti Canine IgG (Southern Biotech) was immobilized at 5000-10000 RU on a CM5 chip using an amine coupling procedure according to the manufacturer's instructions (Biacore). […] The association rate was monitored for 5 min and the dissociation rate was monitored for 10-20 min. The chip surface was regenerated using 50-75 ul 10 mM glycine pH 1.5 at a flow rate of 50-100 ul/min. Data was analyzed using Biaevaluation T100 software version 2.0.2, software, GE Healthcare Life Sciences (Piscataway, N.J.). Overall affinity parameters established for mouse/canine chimeric antibodies is summarized in Table 22 and for caninized antibodies in Table 23. […] The overall KDs of the mouse/canine anti-NGF mAbs range from about 1300 pM to 1.6 pM. […] The overall KDs of the caninized anti-NGF mAbs range from about 42 pM to 1.2 pM.

[4] = biological target: T2, recombinant canine β NGF (canine, UniProt Q29074 110-229 (pig entry)); assay: cell-based or functional assay
T2 chain: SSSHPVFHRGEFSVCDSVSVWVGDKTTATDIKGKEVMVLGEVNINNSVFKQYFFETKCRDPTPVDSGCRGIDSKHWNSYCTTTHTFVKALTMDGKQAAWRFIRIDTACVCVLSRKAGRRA

[5] = biological target: T3, biotinylated human β NGF (human, UniProt P01138 122-241, biotinylated); assay: capture ELISA; supernatant 5-fold
T3 construct: also called Biotinylated Human NGF; human NGF
T3 sequence (P01138 122-241 limits assumed): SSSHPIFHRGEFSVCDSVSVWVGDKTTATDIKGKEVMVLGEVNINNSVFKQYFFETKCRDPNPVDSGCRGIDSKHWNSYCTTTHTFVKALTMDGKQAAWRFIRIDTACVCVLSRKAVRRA
Description: (§1) The plates were washed three times with wash buffer. The plates were blocked with 200 μl of 2% milk and incubated for 1 hour at room temperature. The plates were washed as above. […] The positive control was crude sera (diluted 1:500 with PBS) isolated from a β NGF immunized mouse and the negative control was hybridoma supernatant derived from a mouse immunized with an antigen other than NGF. The plates were washed and then 50 μl of biotinylated human or rat β NGF at 50 ng/ml was added and incubated for 1 hour at room temperature. The plates were washed. […] The plates were incubated for 30 minutes at room temperature. The plates were washed and then TMB substrate (Invitrogen, catalog #00-2023) was added. The reaction was stopped using 2N H₂SO₄ (VWR, catalog # BDH3500-1). The absorbance at 450 nm was read on a Spectromax 2E plate reader (Molecular Devices); these absorbance readings are shown in Tables 1 and 2. The numerical value indicates binding of mouse anti-NGF antibodies to biotinylated human or rat β NGF.

[6] = biological target: T4, biotinylated rat β NGF (rat, UniProt P25427 122-241, limits assumed, biotinylated); assay: capture ELISA; supernatant 5-fold
T4 construct: also called Biotinylated Rat NGF; rat NGF
T4 sequence (P25427 122-241 limits assumed): as the sequence (P01138 122-241 limits assumed) above, with S3T, I6V, R9M, M37T, D60A, D65E, M92T, G94D, V117A, A120G counted along it
Description: as §1

[7] = biological target: T3, biotinylated human β NGF; assay: capture ELISA; supernatant 25-fold
Description: as §1

[8] = biological target: T4, biotinylated rat β NGF; assay: capture ELISA; supernatant 25-fold
Description: as §1

[9] = biological target: T3, biotinylated human β NGF; assay: capture ELISA; supernatant 125-fold
Description: as §1

[10] = biological target: T4, biotinylated rat β NGF; assay: capture ELISA; supernatant 125-fold
Description: as §1

[11] = biological target: T3, biotinylated human β NGF; assay: capture ELISA; supernatant 625-fold
Description: as §1

[12] = biological target: T4, biotinylated rat β NGF; assay: capture ELISA; supernatant 625-fold
Description: as §1

[13] = biological target: T5, human β NGF (human, UniProt P01138 122-241, biotinylated in the TrkA inhibition ELISA (sites not given)); assay: cell-based or functional assay
T5 sequence (P01138 122-241 limits assumed): as the sequence (P01138 122-241 limits assumed) above

[14] = biological target: T5, human β NGF; assay: TrkA inhibition ELISA; biotin-hNGF bound to rat TrkA/Fc; supernatant 1-fold
Description: (§2) The plates were washed three times with PBS/Tween. The plates were blocked with 200 μl/well of 2% milk in PBS for 1 hour at room temperature. The plates were washed three times as above. Rat TrkA/Fc chimera (R&D Systems, catalog #1056-TK) was added at 1 μg/ml (50 μl/well) in PBS/0.1% BSA and then incubated for 1 hour at room temperature. Biotinylated human NGF was titered and pre-incubated with anti-NGF antibody supernatants diluted 1-fold, 5-fold, and 25-fold, or purified anti-NGF mAbs diluted to 0.08, 0.4, 2, or 10 μg/ml for 1 hour at room temperature on a plate shaker. The negative control was unrelated conditioned supernatant. The positive control was sera from a mouse immunized with NGF. The plates were washed and then 50 μl of each biotinylated NGF/Ab mix was added to the appropriate wells. The plates were incubated for 1 hour at room temperature. The plates were washed. […] The plates were incubated for 30 min at room temperature. The plates were washed. 50 μl of TMB (Invitrogen, cat #00-2023) was added and the reaction was stopped using 2N H₂SO₄ (VWR, cat # BDH3500-1). The absorbance at 450 nm was read on a Spectromax 2E plate reader (Molecular Devices), and the absorbance readings are shown in Table 5 The numerical value indicates binding of biotinylated human β NGF to rat TrkA/Fc chimera.

[15] = biological target: T5, human β NGF; assay: TrkA inhibition ELISA; biotin-hNGF bound to rat TrkA/Fc; supernatant 5-fold
Description: as §2

[16] = biological target: T5, human β NGF; assay: TrkA inhibition ELISA; biotin-hNGF bound to rat TrkA/Fc; supernatant 25-fold
Description: as §2

B1: Mu72 Canine IgG1/k Chimera (antibody, V domains shown)
VH: EVHLVESGGGLVKPGGFLILSCAASGFTFSDYYMFWIRQTPGKRLEWVATISDGGSYTYYTDNVKGRFTISRDNVKNNLYLQMSHLKSADTAMYYCARDWSDSEGFAYWGQGTLVTVSA
VL: DVLMTQTPLSLPVSLGDQASISCRSSQSIVQSNGNTYLEWYLQKPGQSPKLLIYKVSNRFSGVPDRFSGSGSGTDFTLKISRVEAEDLGVYYCFQGSHVPFTFGSGTKLEIKR
notes: also called PR-1290646; lot 1785614
TF-1 cell proliferation potency (70 pM canine NGF) [1]: < 50 pM | IC50, canine NGF-induced TF-1 cell proliferation (70 pM canine NGF) [2]: 0.041 nM | Kd [3]: 1.3 nM | koff [3]: 0.0038 s⁻¹

B2: PR-1254972 (antibody, mouse IgG2b, V domains shown)
VH: EVHLVESGGGLVKPGGFLILSCAASGFTFSDYYMFWIRQTPGKRLEWVATISDGGSYTYYTDNVKGRFTISRDNVKNNLYLQMSHLKSADTAMYYCARDWSDSEGFAYWGQGTLVTVSA
VL: DVLMTQTPLSLPVSLGDQASISCRSSQSIVQSNGNTYLEWYLQKPGQSPKLLIYKVSNRFSGVPDRFSGSGSGTDFTLKISRVEAEDLGVYYCFQGSHVPFTFGSGTKLEIKR
notes: also called 20B10; ML129-20B10.3F4
PathHunter IC50 (441 pM canine NGF) [4]: < 1 nM | SureFire cellular pERK IC50 (128 pM canine NGF) [4]: < 1 nM | absorbance at 450 nm [5]: 1.1 | absorbance at 450 nm [6]: 0.472 | absorbance at 450 nm [7]: 0.997 | absorbance at 450 nm [8]: 0.431 | absorbance at 450 nm [9]: 0.576 | absorbance at 450 nm [10]: 0.261 | absorbance at 450 nm [11]: 0.143 | absorbance at 450 nm [12]: 0.108

B3: 2B12 hybridoma supernatant (antibody, mouse IgG2b, V domains shown)
VH: QVQLQQPGAELVKPGASVKLSCKASGYTFTNYWMHWVKQRPGQGLEWIGRIDPYGGGTKHNEKFKRKATVTADKSSSTAYILLSSLTSEDSAVYYCTRSGYDYYFDVWGTGTTVTVSS
VL: DIQMTQSPASLSASVGETVTVTCRASENIYSFLAWHQQKQGKSPQLLVYNANTLAEGVPSRFSGSGSGTQFSLKINSLQPEDFGSYYCQHHFGTPFTFGSGTKLEIKR
notes: Tested as supernatant of the hybridoma before subcloning; mouse IgG2b kappa; also called ML129-2B12.5G9
SureFire pERK, % of maximum signal; supernatant 1000-fold [13]: 0% | absorbance at 450 nm [14]: 0.065 OD450 | absorbance at 450 nm [15]: 0.07 OD450 | absorbance at 450 nm [16]: 0.095 OD450

B4: PR-1254977 (antibody, mouse IgG1, V domains shown)
VH: EVQLQQSGAELVKPGASVKLSCTASGFNIKDTYIYWVKQRPEQGLEWIGRIDPANGNTIYASKFQGKASITADTSSNTAYMQLSSLTSGDTAVYYCAGYGYYAYWGQGTTLTVSS
VL: DVVLTQTPLSLPVNIGDQASISCKSTKSLLNGDGFTYLDWYLQKPGQSPQLLIYLVSNRFSGVPDRFSGSGSGTDFTLKISRVEAEDLGVYYCFESNYLFTFGSGTKLEMKR
notes: also called 21D4; ML129-21D4.4A11
PathHunter IC50 (441 pM canine NGF) [4]: < 1 nM | SureFire cellular pERK IC50 (128 pM canine NGF) [4]: < 1 nM | absorbance at 450 nm [5]: 1.15 | absorbance at 450 nm [6]: 0.787 | absorbance at 450 nm [7]: 1.04 | absorbance at 450 nm [8]: 0.76 | absorbance at 450 nm [9]: 0.899 | absorbance at 450 nm [10]: 0.671 | absorbance at 450 nm [11]: 0.543 | absorbance at 450 nm [12]: 0.453

From patent US20180362629A1 (ZOETIS BELGIUM S A, published 2018)
